Laboratory results published in paper PMC7850899, “Nutrient transceptors physically interact with the yeast S6/protein kinase B homolog, Sch9, a TOR kinase target” (Biochemical Journal, 2021).

Key:
[1] = biological target: T1, Gap1 peptide 222-236 with V232 replaced by E (substitution scan) (S. cerevisiae, UniProt P19145 222-236, 232V replaced by E); experiment: peptide or protein array; PEPperCHIP substitution scan of …, 300 peptides in triplicate; 100 or 500 µg/ml GST-Sch9 or GST, 16 h at 4°C; detected with anti-GST DyLight680; conditions: both partners purified
T1 construct: source: synthesised on the PEPperCHIP substitution peptide microarray (PEPperPRINT)
T1 peptide (looked up): GVKGYGEAEFEFSFI

[2] = biological target: T2, Gap1 peptide 222-236 with S234 replaced by E (substitution scan) (S. cerevisiae, UniProt P19145 222-236, S234E); experiment: as above; conditions: both partners purified
T2 construct: source: synthesised on the PEPperCHIP substitution peptide microarray (PEPperPRINT)
T2 peptide (looked up): GVKGYGEAEFVFEFI

- fold change of spot intensity against the wild type peptide [1]: 3 fold
- fold change of spot intensity against the wild type peptide [2]: > 5 fold
B1: GST-tagged Sch9 (GST-Sch9) (enzyme, S. cerevisiae, UniProt P11792 1-824, looked up)
chain: MMNFFTSKSSNQDTGFSSQHQHPNGQNNGNNNSSTAGNDNGYPCKLVSSGPCASSNNGALFTNFTLQTATPTTAISQDLYAMGTTGITSENALFQMKSMNNGISSVNNNNSNTPTIITTSQEETNAGNVHGDTGGNSLQNSEDDNFSSSSTTKCLLSSTSSLSINQREAAAAAYGPDTDIPRGKLEVTIIEARDLVTRSKDSQPYVVCTFESSEFISNGPESLGAINNNNNNNNNNQHNQNQHINNNNENTNPDAASQHHNNNSGWNGSQLPSIKEHLKKKPLYTHRSSSQLDQLNSCSSVTDPSKRSSNSSSGSSNGPKNDSSHPIWHHKTTFDVLGSHSELDISVYDAAHDHMFLGQVRLYPMIHNLAHASQHQWHSLKPRVIDEVVSGDILIKWTYKQTKKRHYGPQDFEVLRLLGKGTFGQVYQVKKKDTQRIYAMKVLSKKVIVKKNEIAHTIGERNILVTTASKSSPFIVGLKFSFQTPTDLYLVTDYMSGGELFWHLQKEGRFSEDRAKFYIAELVLALEHLHDNDIVYRDLKPENILLDANGNIALCDFGLSKADLKDRTNTFCGTTEYLAPELLLDETGYTKMVDFWSLGVLIFEMCCGWSPFFAENNQKMYQKIAFGKVKFPRDVLSQEGRSFVKGLLNRNPKHRLGAIDDGRELRAHPFFADIDWEALKQKKIPPPFKPHLVSETDTSNFDPEFTTASTSYMNKHQPMMTATPLSPAMQAKFAGFTFVDESAIDEHVNNNRKFLQNSYFMEPGSFIPGNPNLPPDEDVIDDDGDEDINDGFNQEKNMNNSHSQMDFDGDQHMDDEFVSGRFEI
notes: Sch9 protein kinase of yeast, expressed from pGEX-Sch9 (pGEX-4T-1-Sch9); Plasmid from J. Bergsma; also called GST-Sch9p; source: purified from E. coli (peptide microarrays); not shown: GST, N-terminal, kept
